This note sets out measurements from the supplement of paper PMC12455559.

± gives the standard deviation of the averaged measurements. Some results are limits rather than exact numbers.

A short description of series [1]: PET hydrolysis, aromatic products released after 48 h (umol product/mg enzyme); higher = more PET depolymerization activity. The procedure, abridged: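 PET hydrolysis activity was taken as the aromatic product in the supernatant and expressed per mg enzyme. This product was measured by absorbance at 260 and 280 nm against buffer blanks. Each reaction held 5 μg (50 μL) of tagless, SUMO-cleaved candidate enzyme purified on nickel beads, plus 3.5 mg amorphous PET film or crystalline PET powder in 450 μL buffer: 50 mM NaCitrate (pH 4.5, 5.5), 50 mM NaPhosphate (pH 6.5, 7.5) or glycine (pH 8.5). Plates were sealed and left 48 h at 40 or 60 °C without shaking.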

A short description of series [2]: purified protein yield per well (BCA); higher = higher soluble expression. Summed up:
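Expression was done in E. coli C41(DE3), using 2 mL autoinduction cultures with 100 µg/mL kanamycin incubated at 37 °C for 2 h and at 18 °C for 40 h. Protein was purified on Ni-charged magnetic beads and released by SUMO protease cleavage. Yield of purified protein per well was measured with the Pierce Rapid Gold BCA kit; values below 25 ug (0.1 mg/mL) are below detection.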

The nature of series [3]: melting temperature (DSF); higher = more thermostable. Summed up:
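Values are melting temperatures from differential scanning fluorimetry. Candidate enzymes were expressed in E. coli C41(DE3), purified on nickel beads and freed by SUMO protease cleavage. In sealed PCR plates on a Bio-Rad CFX96, 45 μL enzyme (0 to 0.3 mg/mL) was combined with 5 μL 5X Sypro Orange. Fluorescence was recorded from 25 °C for 250 cycles, rising 0.3 °C per cycle at a ramp of 0.3 °C/s.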

Where [4] appears, read: substrate: aFilm, 40 °C, pH 4.5.
[5] abbreviates: substrate: aFilm, 40 °C, pH 5.5.
Setting [6] is: substrate: aFilm, 40 °C, pH 6.5.
Where [7] appears, read: substrate: aFilm, 40 °C, pH 7.5.
[8] abbreviates: substrate: aFilm, 60 °C, pH 4.5.
Setting [9] is: substrate: aFilm, 60 °C, pH 5.5.
The mark [10] stands for this setting: substrate: aFilm, 60 °C, pH 6.5.
[11] abbreviates: substrate: aFilm, 60 °C, pH 7.5.
Setting [12] is: substrate: cryPow, 40 °C, pH 4.5.
The mark [13] stands for this setting: substrate: cryPow, 40 °C, pH 5.5.
[14] abbreviates: substrate: cryPow, 40 °C, pH 6.5.
The mark [15] stands for this setting: substrate: cryPow, 40 °C, pH 7.5.
The mark [16] stands for this setting: substrate: cryPow, 60 °C, pH 4.5.
Setting [17] is: substrate: cryPow, 60 °C, pH 5.5.
Where [18] appears, read: substrate: cryPow, 60 °C, pH 6.5.
The mark [19] stands for this setting: substrate: cryPow, 60 °C, pH 7.5.

Take “QYQKGPDPTVSALERTGSFATRTTTVSRTSASGFGGGTIYYPTASGSYGAIAISPGFTAYQSSISWMGTRLASHGFVVITIDTITTSDQPDSRGRQLKAALDKVVSLSRSSSSPIYNKVDTTRLAVAGHSMGGGGTLAAARDYPSLKAAVPLAPWHTTKSWSRVTVPTLIIGGSTDTIASVGLHSIPFYTSLPSSTNKAYMELSGEGHFFPQTSSNYPLVGRYMISWFKRFVDGDSRYSPFLCGAQHQADLGLFSDISDYRENCPY [ESM169]”: the PET hydrolysis was below 3 in series [1] (setting [4]); 6 ± 1.4 in series [1] (setting [5]); 10.5 ± 0.71 in series [1] (setting [6]); 18.5 ± 0.71 in series [1] (setting [7]); below 3 in series [1] (setting [8]); below 3 in series [1] (setting [9]). The PET hydrolysis was 6.5 ± 0.71 in series [1] (setting [10]); 6 ± 1.4 in series [1] (setting [11]); below 3 in series [1] (setting [12]); 15 ± 2.8 in series [1] (setting [13]); 32.5 ± 0.71 in series [1] (setting [14]); 57 ± 11 in series [1] (setting [15]). In addition, the PET hydrolysis is below 3 in series [1] (setting [16]), 9 in series [1] (setting [17]), 24.5 ± 2.1 in series [1] (setting [18]) and 29 ± 1.4 in series [1] (setting [19]). Further, in series [2], the “purified protein yield per well” value came out at 219 µg. Moreover, the melting temperature in series [3] stood at 61.3 C.

Take “ADNPYQRGPNPTVASVAATRGTFATAQTSVPAGNGFGGGVIYYPTDTSQGTFGGVAIVPGYSALFANEEAWMGPWLASFGFVVIGIETNSRTDSADARGTQLLAALDYLTQRSSVRDRVDPNRLSVVGHSAGGAGVLSAILRRPSLKAGIGLAPGSPVGDYSLSNDRVPTMFISGQRDTTVTQSYLNGLYTTIPASTPSAWVEITGVDHLFATRANTTEMRVLIPWLKIWVDNDTRYTQFLCPLADSTGISMYRNKCPYVPPGGSSPSPSPSPSSSPSRFPSPSPSPSPSQSPSQSPSASPSPPPPGACVAEYRTVNSWPGGYQGEVTVTAGGSAVNGWTVRWTLGSGQTITQLWNGTLSTSGSAVTVKNASFNGSIPASGSATFGFLATGTPSTPSLTCTSP [ESM015]”: the PET hydrolysis in series [1] (setting [12]), in series [1] (setting [13]), in series [1] (setting [14]), in series [1] (setting [15]), in series [1] (setting [16]) and in series [1] (setting [17]) was below 3 in each case. The PET hydrolysis in series [1] (setting [18]) and in series [1] (setting [19]) was below 3 each time. Moreover, the “purified protein yield per well” value in series [2] is 540 µg. In series [3], this sequence registered a melting temperature of 60.7 C.

Turning to “ADLLSQGRPVTASSTENASTPASAAVDGNTGTRWSSAFSDPQWLTVDLGTTATISRVVLRWETAYARRFQIQTSDDGTAWTTIHSATAGTGGVQTLDVTGSGRYVRVHGTQRGTAYGYSLWEFQVYGTRGTTPGEGIPDPSTASLEAAAGPLTTATYTVPDPSGYGSGTVTYPTAGGSYPGVVLMPGYQGTQQNLQWLAPRLASWGFVVLNVGTNTLTDDPASRGRQITAAGTQLLALGAATGNPLSGKVNGTLGAVGHSMGGGGVMAALRDDARFRAGVPTAPYYPNGNFSGVTDPTFFLTCQSDPVAHGNSYALPWYNSMSQSEKLYIEVPGDHLCPMTGSGDKAKQGKWIVSFLSHWLRADTRFTPFLCGPAREADKNDPSLVTRWMDTCPL [TEP036]”, the PET hydrolysis in series [1] (setting [4]), in series [1] (setting [5]), in series [1] (setting [6]), in series [1] (setting [7]), in series [1] (setting [8]) and in series [1] (setting [9]) was below 3 each time. Further, the PET hydrolysis in series [1] (setting [10]), in series [1] (setting [11]), in series [1] (setting [12]), in series [1] (setting [13]), in series [1] (setting [14]) and in series [1] (setting [15]) was below 3 each time. Moreover, the PET hydrolysis in series [1] (setting [16]), in series [1] (setting [17]), in series [1] (setting [18]) and in series [1] (setting [19]) was below 3 each time. Moreover, the “purified protein yield per well” value in series [2] worked out at 230 µg. Also, in series [3], the melting temperature is 51.4 C.

As for “ADNPHQRGPNPTQASITANRGTFATAETSVGGGNGFGAAKIYYPTDTSQGTFGAIAVVPGYTATWAAEGAWMGHWLASFGFVVIGIDTLNRNDFDVARGTQLLAALDYLTQRSSVRTRVDPNRLAVMGHSMGGGGTISAALRWPTLKAAIGLAPYSPSQTTSGLQVPTMLLAGQNDGTSTPASIISLYNNIPASTEKSYLELAGAGHGFPTSNNSVMTRKVIPWMKIFIDQDARYTQFLCPLQDWTGIRSYRSSCPLLPGATFSLAGSASGKCVDVPGRVQTNGTGLIIWTCNGAVNQQWTRTAAGELRIYDNAKCMDANASGPGTRVTINSCNGGNSQKWTVNANGTVTNAASGRCIDTGGTADNAPVVVNTCTGGTSQT [ESM163]”, the PET hydrolysis in series [1] (setting [12]), in series [1] (setting [13]), in series [1] (setting [14]), in series [1] (setting [15]), in series [1] (setting [16]) and in series [1] (setting [17]) was below 3 each time. Further, the PET hydrolysis in series [1] (setting [18]) and in series [1] (setting [19]) was below 3 throughout. For the same sequence, in series [2], the “purified protein yield per well” value was 96.4 µg. In addition, the melting temperature in series [3] came to 58 C.
